One assay addresses T1, CRF1R receptor (UniProt P34998 24-415, limits assumed).
T1 sequence (looked up): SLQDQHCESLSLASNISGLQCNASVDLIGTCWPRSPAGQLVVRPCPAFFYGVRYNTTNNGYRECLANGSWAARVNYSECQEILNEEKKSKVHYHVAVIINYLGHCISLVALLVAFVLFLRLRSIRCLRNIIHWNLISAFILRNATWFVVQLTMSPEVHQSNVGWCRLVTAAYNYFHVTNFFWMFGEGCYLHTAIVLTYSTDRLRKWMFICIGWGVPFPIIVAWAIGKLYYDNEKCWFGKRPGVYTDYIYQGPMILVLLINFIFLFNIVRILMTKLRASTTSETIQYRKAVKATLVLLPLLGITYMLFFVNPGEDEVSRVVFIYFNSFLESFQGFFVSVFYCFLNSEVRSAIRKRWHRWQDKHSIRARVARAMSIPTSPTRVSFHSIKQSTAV
In words: cell-based or functional assay.

Assay [1] concerns the target human corticotropin-releasing factor 2a (CRF2a receptor) (human), Q13324. Briefly: cell-based or functional assay.

*1 amine or outer side, *2 acyl side, *3 side chain or, on linkers, in order; H or OH if unused. Where no end group is shown, it is not given here. Side-chain parts run from the residue outwards. [ ]: non-standard residue; d: D form. The star is where a group is joined. C18 diacid = O=C(O)CCCCCCCCCCCCCCCCC(=O)*; C16 diacid = O=C(O)CCCCCCCCCCCCCCC(=O)*; γGlu = O=C(O)[C@H](CCC(=O)[*:2])N[*:1]; NMeI = CC[C@H](C)[C@H](NC)C(=O)O; αMeL = CC(C)C[C@](C)(N)C(=O)O; Pentanoyl = CCCCC(=O)*; AEEA = NCCOCCOCC(=O)O; Aib = CC(C)(N)C(=O)O

Chain of human corticotropin-releasing factor 2a (CRF2a receptor) (human), Q13324 (Q13324 20-411): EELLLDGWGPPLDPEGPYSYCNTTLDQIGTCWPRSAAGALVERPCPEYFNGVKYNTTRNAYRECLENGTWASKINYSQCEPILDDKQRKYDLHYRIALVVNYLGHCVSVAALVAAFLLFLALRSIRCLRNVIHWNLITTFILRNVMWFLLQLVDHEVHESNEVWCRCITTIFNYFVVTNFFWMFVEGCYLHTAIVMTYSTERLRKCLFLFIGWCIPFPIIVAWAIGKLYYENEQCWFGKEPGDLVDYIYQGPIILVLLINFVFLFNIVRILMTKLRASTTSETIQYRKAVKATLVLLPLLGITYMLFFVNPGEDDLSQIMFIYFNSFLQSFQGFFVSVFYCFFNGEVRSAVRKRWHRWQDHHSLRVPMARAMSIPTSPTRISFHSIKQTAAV

B1: SEQ ID NO 119 (peptide)
peptide: [NMeI]VLSLD[dV]PIK[αMeL]K([AEEA-AEEA-γGlu-C18 diacid])KILLEQEKQKKQREQAETN[Aib]QILAQV-NH2
modifications: N-terminus assumed
SMILES: CC[C@H](C)[C@H](NC)C(=O)N[C@H](C(=O)N[C@@H](CC(C)C)C(=O)N[C@@H](CO)C(=O)N[C@@H](CC(C)C)C(=O)N[C@@H](CC(=O)O)C(=O)N[C@@H](C(=O)N1CCC[C@H]1C(=O)N[C@H](C(=O)N[C@@H](CCCCN)C(=O)N[C@@](C)(CC(C)C)C(=O)N[C@@H](CCCCNC(=O)COCCOCCNC(=O)COCCOCCNC(=O)CC[C@H](NC(=O)CCCCCCCCCCCCCCCCC(=O)O)C(=O)O)C(=O)N[C@@H](CCCCN)C(=O)N[C@H](C(=O)N[C@@H](CC(C)C)C(=O)N[C@@H](CC(C)C)C(=O)N[C@@H](CCC(=O)O)C(=O)N[C@@H](CCC(N)=O)C(=O)N[C@@H](CCC(=O)O)C(=O)N[C@@H](CCCCN)C(=O)N[C@@H](CCC(N)=O)C(=O)N[C@@H](CCCCN)C(=O)N[C@@H](CCCCN)C(=O)N[C@@H](CCC(N)=O)C(=O)N[C@@H](CCCNC(=N)N)C(=O)N[C@@H](CCC(=O)O)C(=O)N[C@@H](CCC(N)=O)C(=O)N[C@@H](C)C(=O)N[C@@H](CCC(=O)O)C(=O)N[C@H](C(=O)N[C@@H](CC(N)=O)C(=O)NC(C)(C)C(=O)N[C@@H](CCC(N)=O)C(=O)N[C@H](C(=O)N[C@@H](CC(C)C)C(=O)N[C@@H](C)C(=O)N[C@@H](CCC(N)=O)C(=O)N[C@H](C(N)=O)C(C)C)[C@@H](C)CC)[C@@H](C)O)[C@@H](C)CC)[C@@H](C)CC)C(C)C)C(C)C
B1: in the assay with CRF1R receptor, the “Emax (% I)” value amounted to 5%. This molecule yielded an EC50 [nM] (cAMP) in assay [1] of 1.62 nM.

B2: SEQ ID NO 2 (peptide)
peptide: Ac-IVLSLD[dV]PIKLK([γGlu-C16 diacid])QILLKQERQKKQREQAEKNKQILEQV-NH2
SMILES: CC[C@H](C)[C@H](NC(C)=O)C(=O)N[C@H](C(=O)N[C@@H](CC(C)C)C(=O)N[C@@H](CO)C(=O)N[C@@H](CC(C)C)C(=O)N[C@@H](CC(=O)O)C(=O)N[C@@H](C(=O)N1CCC[C@H]1C(=O)N[C@H](C(=O)N[C@@H](CCCCN)C(=O)N[C@@H](CC(C)C)C(=O)N[C@@H](CCCCNC(=O)CC[C@H](NC(=O)CCCCCCCCCCCCCCC(=O)O)C(=O)O)C(=O)N[C@@H](CCC(N)=O)C(=O)N[C@H](C(=O)N[C@@H](CC(C)C)C(=O)N[C@@H](CC(C)C)C(=O)N[C@@H](CCCCN)C(=O)N[C@@H](CCC(N)=O)C(=O)N[C@@H](CCC(=O)O)C(=O)N[C@@H](CCCNC(=N)N)C(=O)N[C@@H](CCC(N)=O)C(=O)N[C@@H](CCCCN)C(=O)N[C@@H](CCCCN)C(=O)N[C@@H](CCC(N)=O)C(=O)N[C@@H](CCCNC(=N)N)C(=O)N[C@@H](CCC(=O)O)C(=O)N[C@@H](CCC(N)=O)C(=O)N[C@@H](C)C(=O)N[C@@H](CCC(=O)O)C(=O)N[C@@H](CCCCN)C(=O)N[C@@H](CC(N)=O)C(=O)N[C@@H](CCCCN)C(=O)N[C@@H](CCC(N)=O)C(=O)N[C@H](C(=O)N[C@@H](CC(C)C)C(=O)N[C@@H](CCC(=O)O)C(=O)N[C@@H](CCC(N)=O)C(=O)N[C@H](C(N)=O)C(C)C)[C@@H](C)CC)[C@@H](C)CC)[C@@H](C)CC)C(C)C)C(C)C
Consider B2, for which, in the assay with CRF1R receptor, the “EC50” value came to 95.4 nM and the “Emax (% I)” value is 63%. Besides, the EC50 [nM] (cAMP) in assay [1] was 0.07 nM.
Regarding Pentanoyl-VLSLD[dV]PIK[αMeL]K([AEEA-AEEA-γGlu-C18 diacid])KILLEQEKQKKQREQAETNVQILAQV-NH2 [SEQ ID NO 124], in the assay with CRF1R receptor, the “Emax (% I)” value was found to be 14%. The molecule further had an EC50 [nM] (cAMP) in assay [1] of 0.38 nM.

B3: SEQ ID NO 45 (peptide)
peptide: Ac-VLSLD[dV]PIKLK([γGlu-C16 diacid])KILLEQEKQKKQREQAETN[Aib]QILAQV-NH2
SMILES: CC[C@H](C)[C@H](NC(=O)[C@H](CCC(N)=O)NC(=O)C(C)(C)NC(=O)[C@H](CC(N)=O)NC(=O)[C@@H](NC(=O)[C@H](CCC(=O)O)NC(=O)[C@H](C)NC(=O)[C@H](CCC(N)=O)NC(=O)[C@H](CCC(=O)O)NC(=O)[C@H](CCCNC(=N)N)NC(=O)[C@H](CCC(N)=O)NC(=O)[C@H](CCCCN)NC(=O)[C@H](CCCCN)NC(=O)[C@H](CCC(N)=O)NC(=O)[C@H](CCCCN)NC(=O)[C@H](CCC(=O)O)NC(=O)[C@H](CCC(N)=O)NC(=O)[C@H](CCC(=O)O)NC(=O)[C@H](CC(C)C)NC(=O)[C@H](CC(C)C)NC(=O)[C@@H](NC(=O)[C@H](CCCCN)NC(=O)[C@H](CCCCNC(=O)CC[C@H](NC(=O)CCCCCCCCCCCCCCC(=O)O)C(=O)O)NC(=O)[C@H](CC(C)C)NC(=O)[C@H](CCCCN)NC(=O)[C@@H](NC(=O)[C@@H]1CCCN1C(=O)[C@H](NC(=O)[C@H](CC(=O)O)NC(=O)[C@H](CC(C)C)NC(=O)[C@H](CO)NC(=O)[C@H](CC(C)C)NC(=O)[C@@H](NC(C)=O)C(C)C)C(C)C)[C@@H](C)CC)[C@@H](C)CC)[C@@H](C)O)C(=O)N[C@@H](CC(C)C)C(=O)N[C@@H](C)C(=O)N[C@@H](CCC(N)=O)C(=O)N[C@H](C(N)=O)C(C)C
As to B3, the “Emax (% I)” value in the assay with CRF1R receptor was found to be 5%. For the same molecule, the EC50 [nM] (cAMP) in assay [1] was found to be 0.96 nM.

B4: SEQ ID NO 125 (peptide)
peptide: Ac-IVLSLD[dV]PIKLK([γGlu-C18 diacid])KILLEQEKQKKQREQAETN[Aib]QILAQV-NH2
SMILES: CC[C@H](C)[C@H](NC(C)=O)C(=O)N[C@H](C(=O)N[C@@H](CC(C)C)C(=O)N[C@@H](CO)C(=O)N[C@@H](CC(C)C)C(=O)N[C@@H](CC(=O)O)C(=O)N[C@@H](C(=O)N1CCC[C@H]1C(=O)N[C@H](C(=O)N[C@@H](CCCCN)C(=O)N[C@@H](CC(C)C)C(=O)N[C@@H](CCCCNC(=O)CC[C@H](NC(=O)CCCCCCCCCCCCCCCCC(=O)O)C(=O)O)C(=O)N[C@@H](CCCCN)C(=O)N[C@H](C(=O)N[C@@H](CC(C)C)C(=O)N[C@@H](CC(C)C)C(=O)N[C@@H](CCC(=O)O)C(=O)N[C@@H](CCC(N)=O)C(=O)N[C@@H](CCC(=O)O)C(=O)N[C@@H](CCCCN)C(=O)N[C@@H](CCC(N)=O)C(=O)N[C@@H](CCCCN)C(=O)N[C@@H](CCCCN)C(=O)N[C@@H](CCC(N)=O)C(=O)N[C@@H](CCCNC(=N)N)C(=O)N[C@@H](CCC(=O)O)C(=O)N[C@@H](CCC(N)=O)C(=O)N[C@@H](C)C(=O)N[C@@H](CCC(=O)O)C(=O)N[C@H](C(=O)N[C@@H](CC(N)=O)C(=O)NC(C)(C)C(=O)N[C@@H](CCC(N)=O)C(=O)N[C@H](C(=O)N[C@@H](CC(C)C)C(=O)N[C@@H](C)C(=O)N[C@@H](CCC(N)=O)C(=O)N[C@H](C(N)=O)C(C)C)[C@@H](C)CC)[C@@H](C)O)[C@@H](C)CC)[C@@H](C)CC)C(C)C)C(C)C
With B4, in the assay with CRF1R receptor, the “Emax (% I)” value is 18%. In addition, the EC50 [nM] (cAMP) in assay [1] was 0.15 nM.
Consider Pentanoyl-VLSLD[dV]PIK[αMeL]K([AEEA-AEEA-γGlu-C18 diacid])KILLEQEKQKKQREQAETN[Aib]QILAQV-NH2 [SEQ ID NO 123], for which the “Emax (% I)” value in the assay with CRF1R receptor worked out at 14%. The molecule also came in with an EC50 [nM] (cAMP) in assay [1] of 0.7 nM.

B5: SEQ ID NO 110 (peptide)
peptide: Ac-IVLSLD[dV]PIK[αMeL]K([AEEA-AEEA-γGlu-C18 diacid])KILLEQEKQKKQREQAETN[Aib]QILAQV-NH2
SMILES: CC[C@H](C)[C@H](NC(C)=O)C(=O)N[C@H](C(=O)N[C@@H](CC(C)C)C(=O)N[C@@H](CO)C(=O)N[C@@H](CC(C)C)C(=O)N[C@@H](CC(=O)O)C(=O)N[C@@H](C(=O)N1CCC[C@H]1C(=O)N[C@H](C(=O)N[C@@H](CCCCN)C(=O)N[C@@](C)(CC(C)C)C(=O)N[C@@H](CCCCNC(=O)COCCOCCNC(=O)COCCOCCNC(=O)CC[C@H](NC(=O)CCCCCCCCCCCCCCCCC(=O)O)C(=O)O)C(=O)N[C@@H](CCCCN)C(=O)N[C@H](C(=O)N[C@@H](CC(C)C)C(=O)N[C@@H](CC(C)C)C(=O)N[C@@H](CCC(=O)O)C(=O)N[C@@H](CCC(N)=O)C(=O)N[C@@H](CCC(=O)O)C(=O)N[C@@H](CCCCN)C(=O)N[C@@H](CCC(N)=O)C(=O)N[C@@H](CCCCN)C(=O)N[C@@H](CCCCN)C(=O)N[C@@H](CCC(N)=O)C(=O)N[C@@H](CCCNC(=N)N)C(=O)N[C@@H](CCC(=O)O)C(=O)N[C@@H](CCC(N)=O)C(=O)N[C@@H](C)C(=O)N[C@@H](CCC(=O)O)C(=O)N[C@H](C(=O)N[C@@H](CC(N)=O)C(=O)NC(C)(C)C(=O)N[C@@H](CCC(N)=O)C(=O)N[C@H](C(=O)N[C@@H](CC(C)C)C(=O)N[C@@H](C)C(=O)N[C@@H](CCC(N)=O)C(=O)N[C@H](C(N)=O)C(C)C)[C@@H](C)CC)[C@@H](C)O)[C@@H](C)CC)[C@@H](C)CC)C(C)C)C(C)C
Regarding B5, in the assay with CRF1R receptor, the “Emax (% I)” value was found to be 9%. Also, the EC50 [nM] (cAMP) in assay [1] came out at 0.3 nM.

Source of the values: patent publication US20260001928A1 (CORTERIA PHARMACEUTICALS, priority 2022, published 2026).
